# Laboratory results taken from US20180155451A1 (published 2018).
# Like-named read-outs stand apart in the source and are kept apart here.
# T1: FcgRIIa R (human, UniProt P12318 34-217)
# T1 construct: extracellular domain; also called FcγRIIa R; FcγRIIa type R; not shown: His tag attached to the C terminus
# T1 sequence (looked up): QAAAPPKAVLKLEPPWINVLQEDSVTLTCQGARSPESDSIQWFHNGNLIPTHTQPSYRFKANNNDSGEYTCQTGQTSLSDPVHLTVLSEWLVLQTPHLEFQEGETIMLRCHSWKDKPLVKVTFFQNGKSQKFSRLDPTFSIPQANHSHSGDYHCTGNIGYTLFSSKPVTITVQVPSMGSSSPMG
# T2: FcgRIIa H (human, UniProt P12318 34-217)
# T2 construct: extracellular domain; also called FcγRIIa H; FcγRIIa type H; not shown: His tag attached to the C terminus
# T2 sequence (looked up): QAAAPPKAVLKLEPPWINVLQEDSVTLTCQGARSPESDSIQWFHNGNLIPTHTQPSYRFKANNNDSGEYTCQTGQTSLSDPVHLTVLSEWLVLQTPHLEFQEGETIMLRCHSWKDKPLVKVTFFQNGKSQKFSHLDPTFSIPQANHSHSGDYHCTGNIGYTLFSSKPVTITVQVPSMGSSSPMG
# T3: FcgRIIb (human, UniProt P31994 43-217)
# T3 construct: extracellular domain; Expressed in FreeStyle293 cells and purified; used as analyte in Biacore; also called FcγRIIb; CD32B; not shown: His tag attached to the C terminus
# T3 sequence (looked up): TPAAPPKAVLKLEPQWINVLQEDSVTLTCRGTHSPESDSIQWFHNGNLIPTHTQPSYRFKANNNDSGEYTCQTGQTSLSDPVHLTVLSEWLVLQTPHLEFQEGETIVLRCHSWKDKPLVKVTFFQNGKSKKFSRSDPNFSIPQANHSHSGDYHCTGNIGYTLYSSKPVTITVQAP
# Legend:
# Assay in all cases: SPR (Biacore), antibody captured on chip, FcgR extracellular domain as analyte
# FcgRIIIa F [1] = target: T4, FcgRIIIa F (human, UniProt P08637 17-208)
# T4 construct: extracellular domain; also called FcγRIIIa F; not shown: His tag attached to the C terminus
# T4 sequence (P08637 17-208): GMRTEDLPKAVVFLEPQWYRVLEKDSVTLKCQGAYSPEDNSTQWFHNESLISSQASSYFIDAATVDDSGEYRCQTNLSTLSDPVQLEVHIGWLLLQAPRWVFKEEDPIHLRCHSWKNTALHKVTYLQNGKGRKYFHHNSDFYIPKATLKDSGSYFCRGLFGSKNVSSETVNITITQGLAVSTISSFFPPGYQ
# Experimental: (§1) Analysis of interaction between obj ective antibody and the FcγR was carried out using Biacore T100 (GE Healthcare), Biacore T200, Biacore A100, and Biacore 4000. HBS-EP+ (GE Healthcare) was used as the running buffer, and the measurement temperature was set to 25° C. Chips produced by immobilizing the antigen peptide by the amine coupling method to a Series S sensor Chip CM5 (GE Healthcare), chips produced by allowing preliminarily biotinylated antigen peptides to interact with and immobilize onto a Series S Sensor Chip SA (certified) (GE Healthcare), chips produced by immobilizing Protein L (ACTIGEN, BioVision) to Series S Sencor Chip CM5 (GE Healthcare), or chips produced by immobilizing Protein A/G (Thermo Scientific) to Series S Sencor Chip CM5 (GE Healthcare) were used. Antibodies of interest were captured onto these chips, and allowed to interact to each FcγR diluted with running buffer. To regenerate and repeatedly use the chip, the antibodies captured onto the chip were washed off by reacting 10 mM glycine-HCl, pH 1.5.
# FcgRIIIa V [2] = target: T5, FcgRIIIa V (human, UniProt P08637 17-208)
# T5 construct: extracellular domain; also called FcγRIIIa V; not shown: His tag attached to the C terminus
# T5 sequence (P08637 17-208 F176V limits assumed): as the sequence (P08637 17-208) above, with F160V counted along it
# Experimental: as §1
# FcgRIIa R [3] = target: T1, FcgRIIa R
# Experimental: as §1
# FcgRIIa H [4] = target: T2, FcgRIIa H
# Experimental: as §1
# FcgRIIIa F [5] = target: T4, FcgRIIIa F; remark: listed apart in the source
# Experimental: (§2) H240-Kn113 (SEQ ID NO: 92) resulting from introduction of Y234E and Y235N into H240-Kn072, H240-Kn115 (SEQ ID NO: 93) resulting from introduction of S239M into H240-Kn072, and H240-Kn125 (SEQ ID NO: 94) resulting from introduction of Y235Q and S239M into H240-Kn072 were prepared according to the method described in Reference Example 1.
# as §1
# FcgRIIIa V [6] = target: T5, FcgRIIIa V; remark: listed apart in the source
# Experimental: as §2, §1
# FcgRIIa R [7] = target: T1, FcgRIIa R; remark: listed apart in the source
# Experimental: as §2, §1
# FcgRIIa H [8] = target: T2, FcgRIIa H; remark: listed apart in the source
# Experimental: as §2, §1
# FcgRIa = target: T6, FcgRIa (human, UniProt P12314 16-292)
# T6 construct: extracellular domain; Expressed in FreeStyle293 cells and purified; used as analyte in Biacore; also called FcγRIa; FcγRI; not shown: His tag attached to the C terminus
# T6 sequence (P12314 16-292): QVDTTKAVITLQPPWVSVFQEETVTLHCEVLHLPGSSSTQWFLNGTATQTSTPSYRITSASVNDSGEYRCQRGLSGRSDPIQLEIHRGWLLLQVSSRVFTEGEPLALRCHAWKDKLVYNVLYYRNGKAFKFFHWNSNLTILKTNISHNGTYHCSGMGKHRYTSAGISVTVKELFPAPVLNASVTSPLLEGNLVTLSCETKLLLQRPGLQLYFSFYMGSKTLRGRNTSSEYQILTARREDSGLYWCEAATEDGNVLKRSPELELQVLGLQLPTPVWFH
# Experimental: as §2, §1
# FcgRIIb = target: T3, FcgRIIb
# Experimental: as §2, §1
Kd (FcgRIIIa F [1]),Kd (FcgRIIIa V [2]),Kd (FcgRIIa R [3]),Kd (FcgRIIa H [4]),Kd (FcgRIIIa F [5]),Kd (FcgRIIIa V [6]),Kd (FcgRIIa R [7]),Kd (FcgRIIa H [8]),Kd (FcgRIa),Kd (FcgRIIb),Binder
960 nM,340 nM,950 nM,2100 nM,–,–,–,–,–,–,"H240-Kn067/H240-Hl136/L73-k0 (antibody, human IgG1, kappa, Anti-EREG IgG1 called homodimerized: both H chains (knob and hole) carry L234Y/L235Y/G236W/H268D/S298A/A327D; also called H240-Kn067/H240-HI136/L73-k0) heavy 1: QDQLVQSGAEVKKPGASVKVSCKASGFNIKDTYIQWVRQAPGQGLEWMGRIDPLRKQTKYREKFEGRVTITADTSTNTAYMELSSLRSEDTAVYYCVRSGREFDYWGQGTLVTVSSASTKGPSVFPLAPSSKSTSGGTAALGCLVKDYFPEPVTVSWNSGALTSGVHTFPAVLQSSGLYSLSSVVTVPSSSLGTQTYICNVNHKPSNTKVDKKVEPKSCDKTHTCPPCPAPEYYWGPSVFLFPPKPKDTLMISRTPEVTCVVVDVSDEDPEVKFNWYVDGVEVHNAKTKPREEQYNATYRVVSVLTVLHQDWLNGKEYKCKVSNKDLPAPIEKTISKAKGQPREPQVCTLPPSRDELTKNQVSLWCLVKGFYPSDIAVEWESNGQPENNYKTTPPVLDSDGSFFLYSKLTVDKSRWQQGNVFSCSVMHEALHNHYTQKSLSLSP heavy 2: QDQLVQSGAEVKKPGASVKVSCKASGFNIKDTYIQWVRQAPGQGLEWMGRIDPLRKQTKYREKFEGRVTITADTSTNTAYMELSSLRSEDTAVYYCVRSGREFDYWGQGTLVTVSSASTKGPSVFPLAPSSKSTSGGTAALGCLVKDYFPEPVTVSWNSGALTSGVHTFPAVLQSSGLYSLSSVVTVPSSSLGTQTYICNVNHKPSNTKVDKKVEPKSCDKTHTCPPCPAPEYYWGPSVFLFPPKPKDTLMISRTPEVTCVVVDVSDEDPEVKFNWYVDGVEVHNAKTKPREEQYNATYRVVSVLTVLHQDWLNGKEYKCKVSNKDLPAPIEKTISKAKGQPREPQVYTLPPSRCELTKNQVSLSCAVKGFYPSDIAVEWESNGQPENNYKTTPPVLDSDGSFFLVSKLTVDKSRWQQGNVFSCSVMHEALHNHYTQKSLSLSP light: DIQMTQSPSSLSASVGDRVTITCRASQDIHKYIAWYQQKPGQAPRLLIQYTSTLQPGVPSRFSGSGSGTDYTFTISSLQPEDIATYYCLQYEQLRTFGGGTKVEIKRTVAAPSVFIFPPSDEQLKSGTASVVCLLNNFYPREAKVQWKVDNALQSGNSQESVTEQDSKDSTYSLSSTLTLSKADYEKHKVYACEVTHQGLSSPVTKSFNRGEC"
120 nM,14 nM,450 nM,160 nM,–,–,–,–,–,–,"H240-Kn133/H240-Hl068/L73-k0 (antibody, human IgG1, kappa, Anti-EREG IgG1 called homodimerized: both H chains carry D270E/K326D/A330K/K334E; also called H240-Kn133/H240-HI068/L73-k0) heavy 1: QDQLVQSGAEVKKPGASVKVSCKASGFNIKDTYIQWVRQAPGQGLEWMGRIDPLRKQTKYREKFEGRVTITADTSTNTAYMELSSLRSEDTAVYYCVRSGREFDYWGQGTLVTVSSASTKGPSVFPLAPSSKSTSGGTAALGCLVKDYFPEPVTVSWNSGALTSGVHTFPAVLQSSGLYSLSSVVTVPSSSLGTQTYICNVNHKPSNTKVDKKVEPKSCDKTHTCPPCPAPELLGGPSVFLFPPKPKDTLMISRTPEVTCVVVDVSHEEPEVKFNWYVDGVEVHNAKTKPREEQYNSTYRVVSVLTVLHQDWLNGKEYKCKVSNDALPKPIEETISKAKGQPREPQVCTLPPSRDELTKNQVSLWCLVKGFYPSDIAVEWESNGQPENNYKTTPPVLDSDGSFFLYSKLTVDKSRWQQGNVFSCSVMHEALHNHYTQKSLSLSP heavy 2: QDQLVQSGAEVKKPGASVKVSCKASGFNIKDTYIQWVRQAPGQGLEWMGRIDPLRKQTKYREKFEGRVTITADTSTNTAYMELSSLRSEDTAVYYCVRSGREFDYWGQGTLVTVSSASTKGPSVFPLAPSSKSTSGGTAALGCLVKDYFPEPVTVSWNSGALTSGVHTFPAVLQSSGLYSLSSVVTVPSSSLGTQTYICNVNHKPSNTKVDKKVEPKSCDKTHTCPPCPAPELLGGPSVFLFPPKPKDTLMISRTPEVTCVVVDVSHEEPEVKFNWYVDGVEVHNAKTKPREEQYNSTYRVVSVLTVLHQDWLNGKEYKCKVSNDALPKPIEETISKAKGQPREPQVYTLPPSRCELTKNQVSLSCAVKGFYPSDIAVEWESNGQPENNYKTTPPVLDSDGSFFLVSKLTVDKSRWQQGNVFSCSVMHEALHNHYTQKSLSLSP light: DIQMTQSPSSLSASVGDRVTITCRASQDIHKYIAWYQQKPGQAPRLLIQYTSTLQPGVPSRFSGSGSGTDYTFTISSLQPEDIATYYCLQYEQLRTFGGGTKVEIKRTVAAPSVFIFPPSDEQLKSGTASVVCLLNNFYPREAKVQWKVDNALQSGNSQESVTEQDSKDSTYSLSSTLTLSKADYEKHKVYACEVTHQGLSSPVTKSFNRGEC"
–,–,–,–,1.7 nM,0.62 nM,600 nM,350 nM,0.21 nM,5 µM,"H240-Kn113/H240-Hl076/L73-k0 (antibody, human IgG1, kappa, Heterodimerized anti-EREG IgG1: Kn113 is H240-Kn072 with Y234E and Y235N) heavy 1: QDQLVQSGAEVKKPGASVKVSCKASGFNIKDTYIQWVRQAPGQGLEWMGRIDPLRKQTKYREKFEGRVTITADTSTNTAYMELSSLRSEDTAVYYCVRSGREFDYWGQGTLVTVSSASTKGPSVFPLAPSSKSTSGGTAALGCLVKDYFPEPVTVSWNSGALTSGVHTFPAVLQSSGLYSLSSVVTVPSSSLGTQTYICNVNHKPSNTKVDKKVEPKSCDKTHTCPPCPAPEENWGPSVFLFPPKPKDTLMISRTPEVTCVVVDVSDEEPEVKFNWYVDGVEVHNAKTKPREEQYNATYRVVSVLTVLHQDWLNGKEYKCKVSNKALPAPIEKTISKAKGQPREPQVCTLPPSRDELTKNQVSLWCLVKGFYPSDIAVEWESNGQPENNYKTTPPVLDSDGSFFLYSKLTVDKSRWQQGNVFSCSVMHEALHNHYTQKSLSLSP heavy 2: QDQLVQSGAEVKKPGASVKVSCKASGFNIKDTYIQWVRQAPGQGLEWMGRIDPLRKQTKYREKFEGRVTITADTSTNTAYMELSSLRSEDTAVYYCVRSGREFDYWGQGTLVTVSSASTKGPSVFPLAPSSKSTSGGTAALGCLVKDYFPEPVTVSWNSGALTSGVHTFPAVLQSSGLYSLSSVVTVPSSSLGTQTYICNVNHKPSNTKVDKKVEPKSCDKTHTCPPCPAPELLGGPSVFLFPPKPKDTLMISRTPEVTCVVVDVSHEEPEVKFNWYVDGVEVHNAKTKPREEQYNSTYRVVSVLTVLHQDWLNGKEYKCKVSNDALPMPIEETISKAKGQPREPQVYTLPPSRCELTKNQVSLSCAVKGFYPSDIAVEWESNGQPENNYKTTPPVLDSDGSFFLVSKLTVDKSRWQQGNVFSCSVMHEALHNHYTQKSLSLSP light: DIQMTQSPSSLSASVGDRVTITCRASQDIHKYIAWYQQKPGQAPRLLIQYTSTLQPGVPSRFSGSGSGTDYTFTISSLQPEDIATYYCLQYEQLRTFGGGTKVEIKRTVAAPSVFIFPPSDEQLKSGTASVVCLLNNFYPREAKVQWKVDNALQSGNSQESVTEQDSKDSTYSLSSTLTLSKADYEKHKVYACEVTHQGLSSPVTKSFNRGEC"
